This is an account of results in patent publication US20130142788A1 (published 2013).

For assay [1], the target named is T1, recombinant mature dimeric myostatin (human and mouse (mature sequences 100% …, UniProt O08689 268-376)).
T1 construct: also called GDF-8; mature myostatin
T1 sequence: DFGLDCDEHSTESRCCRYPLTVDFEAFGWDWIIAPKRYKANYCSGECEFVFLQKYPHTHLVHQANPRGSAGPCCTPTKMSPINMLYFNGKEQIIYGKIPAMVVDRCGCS
The experiment in a line: ActRIIb receptor neutralisation ELISA: antibody pre-incubated with 2 nM biotinylated myostatin, binding to coated ActRIIb. Here is the method:
(§1) Recombinant soluble ActRIIb (R&D Systems 339-RBB) was coated in wells of an ELISA plate at 1 μg/ml in carbonate buffer overnight at 4° C. Plates were blocked (see Block solution above at 2.3) and washed following standard ELISA protocols. In parallel, 2 nM biotinylated myostatin (in-house, as described in 1.1, biotinylated material) was pre-incubated with an antibody dilution series consisting of 10B3, 10B3C, and a negative control (IgG1 isotype control) for 2 hours at 37° C. The biotinylated myostatin:antibody reactions were then added to the ActRIIb coated plate for 1 hour at 37° C. Standard wash procedures were followed prior to addition of 1:1000 diluted streptavidin-HRP conjugate (Dako P0397) and a further 37° C. incubation for 1 hour. Plates were again washed and assayed at absorbance 490 nm following OPD substrate (Sigma) and acid stop solution treatment. Inhibition curves and IC50 values for the inhibition of myostatin activity are shown in FIG. 5 and Table 8 respectively.
On the technique in general: ELISA stands for enzyme-linked immunosorbent assay.

The target in assay [2] is T1, recombinant mature dimeric myostatin. The experiment in a line: cell-based or functional assay.
Assay [3] has the same target. The experiment in a line: ActRIIb receptor binding assay: inhibition of biotinylated myostatin binding to coated ActRIIb. The procedure: as §1
Assay [4] has the same target. In words: BIAcore T100 SPR, antibody captured on anti-mouse IgG, myostatin analyte, all curves Bivalent model. The procedure: (§2) The affinity of 10B3 mouse parental and 10B3C for recombinant myostatin was assessed by BIAcore™ (surface plasmon resonance) analysis. Analysis was carried out by the use of a capture surface: anti-mouse IgG was coupled to a C1 chip by primary amine coupling for 10B3 mouse parental; and a protein A surface was created on a C1 chip by primary amine coupling for 10B3 chimera.
(§3) After capture, recombinant myostatin was passed over the surface at 64 nM, 16 nM, 4 nM, 1 nM, 0.25 nM and 0.0625 nM, with a buffer injection (i.e. 0 nM) used for double referencing. There was a regeneration step between each analyte injection, after which the new antibody capture event occurred before the next injection of myostatin. The data was analysed using both the 1:1 model and the Bivalent model inherent to the T100 machines analysis software (see Table 6). Both capture surfaces could be regenerated using 100 mM phosphoric acid, the work was carried out using HBS-EP as the running buffer and using 25° C. as the analysis temperature.
Background: Surface plasmon resonance follows binding to a sensor surface in real time, without labels.

Assay [5] shares this target. In words: Kinexa solution phase affinity. Here is the method:
Kinexa (Sapidyne Instruments) solution phase affinity was used to determine the overall affinity for a range of anti-myostatin molecules. Myostatin beads were prepared either by adsorption (polymethylmethacrylate beads-PMMA) or amine coupling (NHS-activated sepharose beads). The range of anti-myostatin molecules studied necessitated the generation of beads coated with different concentrations of myostatin. For the solution phase portion of the assay, a fixed concentration of antibody was incubated with a broad range of myostatin concentrations and allowed to reach equilibrium by incubation at r.t. for at least 2 h before analysis proceeded. The myostatin beads were then used to determine the amount of free antibody present in the solution phase samples, by means of the free antibody binding to the myostatin bead matrix then detected using an appropriate secondary antibody (either anti-human or anti-mouse depending on the construct being tested) labelled with a fluorescent dye. The binding curves where fitted using the Kinexa Pro analysis software inherent to the machine. Multiple runs using varying starting concentrations of antibody were then compiled and analysed using the n-curve analysis software to give a more accurate determination of affinity.

Assay [6] has as its target T2, human myostatin pro-peptide dimer (human, UniProt O14793 25-266, limits assumed).
T2 sequence: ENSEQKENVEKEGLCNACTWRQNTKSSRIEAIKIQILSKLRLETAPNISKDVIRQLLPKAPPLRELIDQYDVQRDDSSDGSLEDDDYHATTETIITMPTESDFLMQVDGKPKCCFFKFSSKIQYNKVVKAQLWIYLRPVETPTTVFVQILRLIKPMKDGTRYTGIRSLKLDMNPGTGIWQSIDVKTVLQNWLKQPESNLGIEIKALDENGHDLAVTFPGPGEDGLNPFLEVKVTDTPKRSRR
In words: ELISA, antigen coated at 100 ng/well. The procedure: The myostatin antigens were coated onto wells of an EIA/RIA plate (Costar) at 100 ng/well at 4° C. overnight in PBS, prior to blocking (PBS, 3% BSA) for 30 minutes at room temperature. Plates were washed (PBS, 1% BSA and 0.1% Tween20), prior to the addition of a dilution series of 10B3 in wash buffer and incubation for 2 hours at room temperature. Plates were again washed prior to addition of peroxidase-conjugated Affinipure F(ab′)2 fragment donkey anti-mouse IgG (Jackson Laboratories cat 715-036-151) diluted 1:10,000 in wash buffer and incubated for 1 hour at room temperature. A final wash step preceded addition of TMB substrate and colorimetric change which was stopped with Sulphuric acid and plates read at 450 nm.

The target in assay [7] is T1, recombinant mature dimeric myostatin. In words: BIAcore T100 SPR, antibody captured on anti-mouse IgG, myostatin analyte, all curves 1:1 model. The procedure:
as §2, §3

The target is the same in assay [8]. In words: ActRIIb neutralisation ELISA: inhibition of 2 nM biotinylated myostatin binding to coated ActRIIb. Put shortly:
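Soluble ActRIIb coated at 1 μg/ml; 2 nM biotinylated myostatin pre-incubated 30 min at 37° C with antibody dilution series, then bound to plate 1 h at 37° C. Bound myostatin detected with streptavidin-HRP, absorbance at 490 nm after acid stop.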

B1: mouse monoclonal antibody 10B3 (antibody, mouse IgG2a, V domains shown)
VH: EVQLQQSGPELVKPGASVKISCKASGYSFTGYFMHWVKQSHGNILDWIGNIYPYNGVSNYNQRFKAKATLTVDKSSSTAYMELRSLTSEDSAVYYCARRYYYGTGPADWYFDVWGTGTTVTVSS
VL: DIKMTQSPSSMYASLRERVTITCKASQDINSYLSWFQQKPGKSPKTLIYRANRLVDGVPSRFSGSGSGQDYSLTISSLEYEDMGIYYCLQCDEFPLTFGAGTKLELK
notes: Murine IgG2a/k; also called 10B3 mouse parental; parental 10B3
The term IC50 denotes the concentration at which inhibition is half-maximal. As for B1, the values for the IC50 in assay [1], in assay [3] and in assay [8] were 0.132 µg/mL, 0.161 nM and 0.172 nM, respectively. Moreover, the “IC50, myostatin responsive reporter gene assay (A204 cells, luciferase)” value in assay [2] was 10 nM. The Kd turned out to be 5.9 nM in assay [4], 0.205 nM in assay [5] and 1 nM in assay [7]. Besides, in assay [6], the binding result was “no binding”.
